Test results from PMC3687597 (Clinical and Developmental Immunology, 2013).

Molecular target: T1, anthrax lethal factor (LF) (Bacillus anthracis, strain , UniProt P15917)
T1 construct: source: purified; produced in Dr. Nick Duesbery's lab at Van Andel Research Institute
Experiment: ELISA
Settings: both partners purified

T1 sequence (P15917 34-809): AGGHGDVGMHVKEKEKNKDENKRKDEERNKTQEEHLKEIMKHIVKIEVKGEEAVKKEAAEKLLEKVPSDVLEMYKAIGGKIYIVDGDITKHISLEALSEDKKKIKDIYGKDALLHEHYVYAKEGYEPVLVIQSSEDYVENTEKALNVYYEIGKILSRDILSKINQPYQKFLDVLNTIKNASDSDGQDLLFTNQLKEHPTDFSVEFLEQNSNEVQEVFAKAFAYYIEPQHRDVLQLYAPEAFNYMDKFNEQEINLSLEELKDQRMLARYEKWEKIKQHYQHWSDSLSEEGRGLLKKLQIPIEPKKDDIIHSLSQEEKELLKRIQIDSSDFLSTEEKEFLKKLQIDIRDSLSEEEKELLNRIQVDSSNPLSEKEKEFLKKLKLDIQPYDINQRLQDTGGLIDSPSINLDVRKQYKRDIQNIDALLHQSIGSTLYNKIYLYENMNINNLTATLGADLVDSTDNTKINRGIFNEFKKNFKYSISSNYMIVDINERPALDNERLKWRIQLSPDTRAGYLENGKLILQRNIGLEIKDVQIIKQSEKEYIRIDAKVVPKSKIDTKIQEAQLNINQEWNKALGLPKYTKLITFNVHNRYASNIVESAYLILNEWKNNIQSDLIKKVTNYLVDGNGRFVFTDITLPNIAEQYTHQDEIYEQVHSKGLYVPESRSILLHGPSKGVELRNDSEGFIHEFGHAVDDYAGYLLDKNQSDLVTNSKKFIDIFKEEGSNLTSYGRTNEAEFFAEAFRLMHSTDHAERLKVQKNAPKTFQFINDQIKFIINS

B1:  (Fab, V domains shown)
VH: EVQLQQSGAELVKPGASVKLSCTASGFNIKDSYMHWVKQRPEQGLEWIGRIDPANGNTKYDPKFQGKATITVDTSSNTAYLQLSSLTSEDTAVYYCTRLDYWGQGTTLTVS
VL: ENVLTQSPAIMSASLGEKVTMSCRASSSVNYMYWYQQKSDASPKLWIYSTSNLAPGVPARFSGSGSGNSYSLTISSMEGEDAATYYCQQFTSSPSALTFGAGTKLEIK
notes: also called LF8-Fab; chimeric anti-LF Fab
**Q.** B1 was tested. Which Ka did it give?
**A.** Its Ka is 3.46e+07 M⁻¹.
